Three molecules from patent US20060171935A1, “Protecting cell therapy for neurological disorders including Parkinson's disease” (priority 2005, published 2006) can be followed below.

Positions count from the first letter of the chain named. In names and notes the source's numbering stands.

Data set [1] concerns DY-1 ES cells. As to the kind of experiment: Candidate soluble factors in DY-1 ES cell differentiation to dopamine neurons. In kind it is cell-based, murine. As to conditions: added at stages 4-5 of differentiation. Here is the method: The availability of marked ES-derived ‘late’ dopamine neurons should facilitate the analysis of candidate soluble and cell-associated factors in the differentiation process. […] Briefly, DY-1 ES cells were differentiated using EB or SDIA and candidate factors were added to the standard differentiation protocol at stages 4-5 of differentiation (Lee et al., 2000).

Data set [2] has as its system CAD murine neuroblastoma cells. Put plainly: αSyn intracytoplasmic inclusions in CAD cells. Type of data set: cell-based. As to conditions: co-overexpression with αSyn. Here is the method: To further evaluate αSyn aggregation, the inventors performed immunohistochemical analyses of CAD cells transfected with αSyn along with DJ-1 or control vector (FIG. 25). Overexpression of αSyn in neuroblastoma cells induces the formation of visible cytoplasmic aggregates (Lee and Lee 2002) (FIGS. 25J-25L).
(§1) Quantification of CAD cell aggregates was performed using a Zeiss LSM Pascal confocal microscope (Zeiss, Oberkochen, Germany) with a 20× long working distance lens. Images were imported to NIH Image J for analysis. Images from tenrandomly selected fields in each of three wells were quantified for each condition. Cells containing at least one intracytoplasmic aggregate, independent of size or number per cell, were scored as positive for aggregates. This number was divided by the number of transfected cells per field, determined by GFP fluorescence.

Data set [3] concerns the target T1, citrate synthase (CS) (Sus scrofa, UniProt P00889).
T1 construct: purchased Sigma
T1 sequence (P00889 28-464): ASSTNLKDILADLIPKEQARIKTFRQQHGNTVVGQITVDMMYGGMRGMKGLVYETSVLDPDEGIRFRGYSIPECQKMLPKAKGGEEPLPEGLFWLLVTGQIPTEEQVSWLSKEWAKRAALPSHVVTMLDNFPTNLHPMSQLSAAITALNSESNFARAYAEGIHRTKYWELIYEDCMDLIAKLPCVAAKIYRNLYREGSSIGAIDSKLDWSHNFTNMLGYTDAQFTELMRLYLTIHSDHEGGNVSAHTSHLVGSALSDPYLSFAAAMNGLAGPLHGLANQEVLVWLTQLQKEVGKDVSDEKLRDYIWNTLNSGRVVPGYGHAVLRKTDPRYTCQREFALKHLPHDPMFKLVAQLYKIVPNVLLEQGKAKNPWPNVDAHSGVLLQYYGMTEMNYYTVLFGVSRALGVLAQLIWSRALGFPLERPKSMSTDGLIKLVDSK
Put plainly: Suppression of heat-induced aggregation of citrate synthase (chaperone assay). Type of data set: biochemical. As to conditions: 0.8 μM CS, 43° C. Here is the method: To test the redox regulation of DJ-1, the inventors assayed chaperone activity in the CS aggregation assay in the presence or absence of the reducing agent DTT. […] (FIG. 22D). […] To further test whether redox regulation might govern DJ-1 chaperone activity, reactivation studies using reduced DJ-1 were performed. DTT-reduced DJ-1 was incubated with H2O2 (10 mM in aggregation buffer for 10 min at 4° C. followed by dialysis against aggregation buffer for 2 h), and subsequently chaperone activity was measured in the CS thermal aggregation assay. […] This was not an indirect effect of residual H2O2 on CS aggregation, as H2O2 treatment of CS increased aggregation (unpublished data).
CS aggregation was performed in 40 mM HEPES (pH 7.8), 20 mM potassium hydroxinde, 50 mM potassium chloride, and 10 mM ammonium sulfate, and monitored in a thermostat-controlled fluorescence spectrophotometer with excitation and emission wavelengths at 500 nm and slit widths at 2.5 nm. Insulin aggregation was performed as described (Giasson et al. 2000). CS, insulin, RNase A, and GST were obtained from Sigma; human Hsp27 was obtained from Stressgen.

Data set [4] deals with DJ-1-deficient ES cells. Put plainly: Rescue of DJ-1-deficient ES cells from H2O2, MTT viability. In kind it is cell-based, murine. As to conditions: transient transfection, 10 μM H2O2 for 15 h. Here is the method:
(A) DJ-1 cysteine-to-alanine mutants C106A, C53A, and a triple mutant that harbors mutations at all three cysteines in DJ-1 (C106A/C53A/C46A), as well as L166P, were tested for in vitro chaperone activity by CS aggregation suppression assay. (B) Self-association of DJ-1 cysteine mutants. Murine neuroblastoma CAD cells were transiently cotransfected with Flag-tagged human DJ-1 vectors (either WT or mutant) along with WT YFP-tagged human DJ-1. Lysates were immunoprecipitated with anti-Flag antibodies and probed by Western blotting with an antibody specific for human DJ-1. […] Lysates represent 20% of the input for the immunoprecipitate; Flag-DJ-1 migrates at 22 kDa, and YFP-DJ-1 migrates at 50 kDa. (C) DJ-1-deficient ES cells were transiently transfected with vector alone, WT DJ-1, or DJ-1 cysteine mutants, and exposed to 10 μM H2O2 for 15 h followed by MTT assay. The viability of the cells in the absence of drug treatment was not altered by the expression of WT or mutant DJ-1). Data are shown as the mean±SEM and were analyzed by ANOVA with Fisher's post-hoc test. *p<0.05.
To confirm that altered sensitivity to oxidative stress is a consequence of the loss of DJ-1, ‘rescue’ experiments by overexpressing wild-type or mutant human DJ-1 in ‘knockout’ ES cells were performed. Plasmids encoding human wild-type DJ-1, PD-associated L166P mutant DJ-1, or vector alone, were transiently transfected into DJ-1 deficient clones, and these were subsequently assayed for sensitivity to H2O2 using the MTT viability assay.
In Vivo Assays. ES cells plated in 96-well format (2.3×10^4 cells/well) were treated for 15 hours with H2O2 in ES media deficient in β-mercaptoethanol (Abeliovich et al. 2000). Cell viability (as a percent of untreated control) was determined by MTT assay in triplicate (Fezoui et al. 2000). Annexin V/Propidium Iodide (Molecular probes) staining was performed per the manufacturer's instructions. For dihydrorhodamine-123 staining (DHR, Molecular probes) (Walrand et al. 2003), cells were preincubated for 30 min with DHR (5 μM), washed with PBS, then treated with H2O2 in ES media deficient in β-mercaptoethanol for 15 min at 37° C. The FACS analysis was performed using a FACSTAR sorter (Becton Dickinson). Dopamine uptake assay was performed essentially as described (Farrer et al. 1998). Reported values represent specific uptake from which non-specific uptake, determined in the presence of mazindol, was subtracted, and normalized for protein content (BCA kit, Pierce).

The subject of data set [5] is CAD murine neuroblastoma cells. Put plainly: Q333P NFL intracytoplasmic inclusions in CAD cells. The settings on record: co-overexpression with Q333P mutant NFL. Type of data set: cell-based. Here is the method: In a separate set of experiments, the inventors assayed the ability of DJ-1 to inhibit aggregation of a second substrate, neurofilament light subunit (NFL). Overexpression of a mutant form of human NFL, Q333P, by transient transfection of CAD murine neuroblastoma cells, leads to the accumulation of intracytoplasmic inclusions (Perez-Olle et al. 2002).
as §1

A short description of data set [6]: CD thermal denaturation. Type of data set: physicochemical. The settings on record: CD at 222 nm, range studied 0-90° C. The text has this: (G) Redox regulation is unaffected by the C106A mutation.
Molecular chaperones typically display marked stability to thermal stress (Sastry et al. 2002). […] (FIG. 28).

Data set [7] concerns Undifferentiated ES cells. As to the kind of experiment: Q333P mutant NFL toxicity, MTT reduction, undifferentiated ES cells. In kind it is cell-based. As to conditions: 72 h. Here is the method: FIG. 30 depicts the additional studies of DJ-1 mutations. […] Cells from FIG. 4M were quantified via ToPro3 nuclear staining and are expressed as number of cells per field from ten independent fields in each of three wells. Data are shown as the mean±SEM and were analyzed by ANOVA with Fisher's post-hoc test. *p<0. […] GFP positive transfected cells from FIG. 5A-5L were quantified and are expressed as number of transfected cells per field from ten independent fields in each of three wells. Data are shown as the mean±SEM and were analyzed by ANOVA with Fisher's post-hoc test. *p<0. (C) Overexpression of WT DJ-1, but not L166P mutant DJ-1, rescues cells from Q333P mutant NFL toxicity. HeLa cells were transfected with Q333P mutant NFL along with WT human DJ-1, L166P mutant DJ-1, or vector control. After 72 h, cells were assayed by MTT reduction assay (which detects reduction of 3-(4,5-dimethylthiazol-2-yl)-2,5-diphenyltetrazolium bromide by metabolic enzymes) (Martinat et al. 2004). Data are shown as the mean±SEM and were analyzed by ANOVA with Fisher's post-hoc test. *p<0. […] Undifferentiated ES cells were transfected with Q333P mutant NFL along with WT human DJ-1, C53A mutant DJ-1, or vector control. After 72 h, cells were assayed by MTT reduction assay (Martinat et al. 2004). Data are shown as the mean±SEM and were analyzed by ANOVA with Fisher's post-hoc test. *p<0. […]
For orientation: Tetrazolium assays rely on reduction of a dye to a coloured formazan, in cell work by metabolically active cells.

B1: Noggin: soluble Noggin, inhibits BMP signaling (protein, UniProt Q13253 28-232, looked up)
Noggin: QHYLHIRPAPSDNLPLVDLIEHPDPIFDPKEKDLNETLLRSLLGGHYDPGFMATSPPEDRPGGGGGAAGGAEDLAELDQLLRQRPSGAMPSEIKGLEFSEGLAQGKKQRLSKKLRRKLQMWLWSQTFCPVLYAWNDLGSRFWPRYVKVGSCFSKRSCSVPEGMVCKPSKSVHLTVLRWRCQRRGGQRCGWIPIQYPIISECKCSC
With B1, the “generation of late dopamine neurons (eYFP fluorescence, DAT immunoreactivity, late DN markers)” value in data set [1] is “did not detect any effect”.

B2: L166P DJ-1: Parkinsonism-associated L166P mutant of human DJ-1, recombinant or plasmid-expressed (protein, UniProt Q99497 1-189, looked up, variant L166P)
chain: MASKRALVILAKGAEEMETVIPVDVMRRAGIKVTVAGLAGKDPVQCSRDVVICPDASLEDAKKEGPYDVVVLPGGNLGAQNLSESAAVKEILKEQENRKGLIAAICAGPTALLAHEIGFGSKVTTHPLAKDKMMNGGHYTYSENRVEKDGLILTSRGPGTSFEFAPAIVEALNGKEVAAQVKAPLVLKD
As to B2, the “number of cells containing αSyn aggregates” value in data set [2] is given as “fails to do so”. For the same molecule, the “suppression of heat-induced aggregation of CS (chaperone activity)” value in data set [3] was “abrogated chaperone activity”. Also, the “viability of DJ-1 knockout cells in the presence of H2O2” value in data set [4] is reported as “did not significantly alter the viability”. The “accumulation of NFL inclusions” value in data set [5] is “failed to inhibit”. In addition, the thermal unfolding transition result in data set [6] is on record as “does not exhibit a thermal unfolding transition”.

B3: C53A: DJ-1 cysteine-to-alanine mutant at cysteine 53 (protein, UniProt Q99497 1-189, looked up, variant C53A)
chain: B2 chain with C53A, P166L
As to B3, the “suppression of heat-induced aggregation of CS (chaperone activity)” value in data set [3] is “completely abrogates chaperone activity”. Besides, the “viability of DJ-1 knockout cells in the presence of H2O2” value in data set [4] is listed as “failed to protect”. For the same molecule, in data set [7], the “rescue from Q333P mutant NFL toxicity” value is listed as “unable to rescue”.
